These results are taken from US9012420B2, “Aptamer for chymase, and use thereof” (Ribomic Inc., priority 2009, dated 2015).

Data set [1] concerns the target T1, chymase (Homo sapiens, UniProt P23946 P23946:22-247).
T1 sequence: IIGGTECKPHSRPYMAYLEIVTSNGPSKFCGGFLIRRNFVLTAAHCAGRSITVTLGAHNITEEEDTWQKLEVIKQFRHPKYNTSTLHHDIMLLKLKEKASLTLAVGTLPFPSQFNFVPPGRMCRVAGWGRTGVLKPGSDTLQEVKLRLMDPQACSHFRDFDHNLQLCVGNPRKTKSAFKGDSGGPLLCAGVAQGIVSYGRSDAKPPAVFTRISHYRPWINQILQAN
The data set can be described thus: inhibition; Suc-AAPF-MCA, 37 C, solution C. The settings on record: tags: recombinant, expressed in yeast, SIGMA. The method, then: Here, Suc is a protecting succinyl group, and MCA is a 4-methylcoumaryl-7-amide group; upon cleavage of the C-terminal side of phenylalanine, AMC (7-amino-4-methyl-coumarine) is released. By detecting the fluorescence of this AMC, the enzyme activity of chymase can be determined. The assay was performed using a 96-well plate (F16 Black Maxisorp Fluoronunc, manufactured by Nunc), with a reaction mixture volume of 100 μL, in solution C as a buffer solution. First, each nucleic acid was serially diluted to 0.0027-2 μM concentrations in solution C to obtain 50 μL solutions. After 10 μL of the 1 mM substrate prepared in solution C was added thereto, the plate was set to the microplate reader SpectraMax190 (manufactured by Molecular Devices Corporation), and incubated at 37° C. for 5 minutes. Separately, 0.05 μg (or 0.005 μg) of chymase (recombinant, manufactured by SIGMA) was diluted in solution C to obtain a 40 μL chymase solution, and incubated at 37° C. for 5 minutes. The chymase solution was added to the mixture of the nucleic acid and substrate to initiate an enzyme reaction. The final chymase concentration in the reaction mixture was 16.7 nM (or 1.67 nM), the final substrate concentration being 100 μM. The plate containing the reaction mixture was set to the microplate reader SpectraMax190 (manufactured by Molecular Devices Corporation), and examined for time-dependent changes in the fluorescence intensity at 37° C. for 5 minutes (or 30 minutes) (excitation wavelength 380 nm, detection wavelength 460 nm). A linear approximation of the increase in the fluorescence of the AMC released from the substrate by chymase activity was generated, and its slope was taken as the initial velocity […]. For control, samples were treated and analyzed in the same manner in two cases: use of a 30N or 40N (a nucleotide of 30 or 40 consecutive bases represented by N; N is A, G, C or T) nucleic acid pool (negative control), and use of chymostatin, a known chymotrypsin-like serine protease inhibitor (positive control). Taking the initial reaction velocity without the nucleic acid and inhibitor (V_0) as a 100% enzyme activity, the inhibitory rate of each test substance was calculated using the following equation: […]
The chymase inhibitory activity was measured in the same manner as in Example 3.

Data set [2] deals with T1, chymase. The data set can be described thus: inhibition; angiotensin I; recombinant 0.158. The conditions noted are these: tags: human skin mast cell, Calbiochem. Here is the method:
(§1) The total volume of solution for an enzyme reaction in the assay was set to 50 μL, and the reaction was performed in solution C buffer. First, 0.3-0.75 ng of chymase (recombinant, (manufactured by SIGMA) or native (manufactured by Calbiochem)) was diluted with solution C to give 5 μL thereof. Here, the recombinant is chymase expressed by yeast, and the native is chymase purified from human skin mast cell. The nucleic acid was serially diluted with solution C at a concentration of 0.0027-2 μM to give 25 μL thereof. The chymase solution (5 μL) and the nucleic acid solution (25 μL) were mixed, and the mixture was incubated at 37° C. for 5 min. […] The whole mixture was centrifuged at 4° C., 14000 rpm for 10 min, and the supernatant (30 μL) was used for the next fluorescence induction reaction.
(§2) The above-mentioned supernatant (30 μL) was added to a 96 well plate (black, manufactured by Costar), a solution (15 μL) of 2% o-phthalaldehyde (manufactured by SIGMA) in methanol and 0.3M NaOH solution (170 μL) were added to each well, and the mixture was incubated at room temperature for 10 min. […] The plate was set on a microplate reader SpectraMax190 (manufactured by Molecular device) and the fluorescence intensity was measured at an excitation wavelength of 355 nm and a fluorescence wavelength of 460 nm.

Data set [3] concerns the target T1, chymase. Kind of data set: inhibition; angiotensin I; recombinant 0.370. The conditions noted are these: tags: human skin mast cell, Calbiochem. Here is the method: as §1, §2
Data set [4] deals with T1, chymase. Kind of data set: inhibition; angiotensin I; recombinant 0.419. The settings on record: tags: human skin mast cell, Calbiochem; label: 3' biotin.
For data set [5], the target named is T1, chymase. The data set can be described thus: inhibition; angiotensin I; recombinant 0.289. The conditions noted are these: tags: human skin mast cell, Calbiochem. The method, then:
as §1, §2

The target of data set [6] is T1, chymase. The data set can be described thus: inhibition; angiotensin I; recombinant 0.328. The conditions noted are these: tags: human skin mast cell, Calbiochem. Here is the method: as §1, §2
The target in data set [7] is T1, chymase. Kind of data set: inhibition; angiotensin I; recombinant 0.414. The conditions noted are these: tags: human skin mast cell, Calbiochem. Here is the method: as §1, §2
The target in data set [8] is T1, chymase. The data set can be described thus: inhibition; angiotensin I; recombinant 0.687. The settings on record: tags: human skin mast cell, Calbiochem. Here is the method:
as §1, §2

For data set [9], the target named is T1, chymase. Kind of data set: inhibition; angiotensin I; recombinant 0.153. The settings on record: tags: human skin mast cell, Calbiochem. Here is the method:
as §1, §2

The target of data set [10] is T1, chymase. The data set can be described thus: inhibition; angiotensin I; recombinant 0.377. The settings on record: tags: human skin mast cell, Calbiochem. The method, then: as §1, §2
Data set [11] addresses T1, chymase. Kind of data set: inhibition; angiotensin I; recombinant 0.310. The conditions noted are these: tags: human skin mast cell, Calbiochem; label: 5' biotin.
The target in data set [12] is T1, chymase. The data set can be described thus: inhibition; angiotensin I; recombinant 0.065. The conditions noted are these: tags: human skin mast cell, Calbiochem. The method, then:
as §1, §2

The target of data set [13] is T1, chymase. The data set can be described thus: inhibition; angiotensin I; recombinant 0.036. The conditions noted are these: tags: human skin mast cell, Calbiochem. The method, then:
as §1, §2

Data set [14] addresses T1, chymase. The data set can be described thus: inhibition; angiotensin I; recombinant 0.161. The conditions noted are these: tags: human skin mast cell, Calbiochem. Here is the method: as §1, §2
Data set [15] addresses T1, chymase. Kind of data set: inhibition; angiotensin I; recombinant 0.426. The settings on record: tags: human skin mast cell, Calbiochem; label: 5' biotin.
Data set [16] deals with T1, chymase. Kind of data set: inhibition; angiotensin I; recombinant 0.394. The settings on record: tags: human skin mast cell, Calbiochem. Here is the method: as §1, §2
In data set [17] the target is T1, chymase. The data set can be described thus: inhibition; angiotensin I; recombinant 0.125. The settings on record: tags: human skin mast cell, Calbiochem. The method, then:
as §1, §2

Data set [18] deals with T1, chymase. Kind of data set: inhibition; angiotensin I; recombinant 0.239. The conditions noted are these: tags: human skin mast cell, Calbiochem. The method, then: as §1, §2
Data set [19] has as its target T1, chymase. Kind of data set: inhibition; angiotensin I; recombinant 0.043. The settings on record: tags: human skin mast cell, Calbiochem; label: 5' biotin. Here is the method: as §1, §2
Data set [20] addresses T1, chymase. The data set can be described thus: inhibition; angiotensin I; recombinant 0.201. The settings on record: tags: human skin mast cell, Calbiochem. The method, then:
as §1, §2

B1: 72(7) (mixed)
mixed: GGGTTAGAUAGAGTUAAAAACCC
modifications: 2'-F U; 2'-OMe 1-3,7,10,13,16-20; DNA T4,T5,A8,T14,C21-C23; 5' idT; 3' PEG 40 kDa
In the case of B1, the IC50 with chymase [1] worked out at 55 nM; in the data set with chymase [2], 312 nM.

B2: 72(6) (mixed)
mixed: GGGTTAGAUAGAGTUAAAAACCC
modifications: 2'-F U; 2'-OMe 1-3,7,8,10,13,16,17,19,20; DNA T4,T5,T14,A18,C21-C23; 5' and 3' idT
For the molecule B2, the IC50 is 573 nM in the data set with chymase [3] and 41 nM in the data set with chymase [1].
On to GGGUUAGAUAGAGUUAAAAACCC (ssRNA, 2'-F U and C; 2'-OMe 1-3,7,8,10,13,16-20; 5' and 3' idT) [56(47)], for which the IC50 with chymase [1] (label: 3' biotin) was determined as 37 nM; with chymase [4], 542 nM.
For AAAGGGUUAGAUAGAGUUAAAAACCC (ssRNA, 2'-F U and C; 2'-OMe 1-6,10,11,13,16,19-23; 5' and 3' idT) [69(2)], the IC50 with chymase [5] stood at 752 nM; in the data set with chymase [1], 48 nM.

B3: 56(43) (ssRNA)
RNA: GGGUUAGAUAGAGUUAAAAACCC
modifications: 2'-F U and C; 2'-OMe 1-3,7,8,10,13,16-20; 5' peptide 1 (Phe-Cys, disulfide); 3' idT
Take B3: the half-inhibitory concentration (IC50) with chymase [1] was determined as 35 nM; with chymase [6] it was 591 nM.

B4: 56(44) (ssRNA)
RNA: GGGUUAGAUAGAGUUAAAAACCC
modifications: 2'-F U and C; 2'-OMe 1-3,7,8,10,13,16-20; 5' peptide 2 (Cys-Phe, disulfide); 3' idT
Regarding B4, the half-maximal inhibitory concentration (IC50) with chymase [1] stood at 42 nM; with chymase [7] it was 643 nM.
Regarding GGGUUAGAUAGAGUUAAAAACCC (ssRNA, 2'-F U and C; 2'-OMe 1-3,7,8,10,13,16-20; 5' cholesterol; 3' idT) [56(42)], the IC50 with chymase [1] stood at 71 nM; with chymase [8], 601 nM.
For GGGUUAGAUAGAGUUAAAAACCC (mixed, 2'-F U and C; 2'-OMe 1-3,7,10,13,16-20; DNA A8; 5' and 3' idT) [56(50)], the values for the IC50 in the data set with chymase [1] and in the data set with chymase [9] were 27 nM and 325 nM, respectively.
As for GGGUUAGAUAGAGUUAAAAACCC (ssRNA, 2'-F U and C; 2'-OMe 1-3,7,8,10,13,16-20; 5' idT; 3' PEG 40 kDa) [56(45)], the values for the half-inhibitory concentration (IC50) with chymase [10] and with chymase [1] were 303 nM and 59 nM, respectively.
Consider GGGUUAGAUAGAGUUAAAAACCC (mixed, 2'-F U and C; 2'-OMe 1-3,7,10,13,16-20; DNA A8; 5' and 3' idT) [56(51)], for which the IC50 amounted to 29 nM with chymase [1] (label: 5' biotin) and 429 nM with chymase [11].
With GGGTTAGAUAGAGTUAAAAACCC (mixed, 2'-F U; 2'-OMe 1-3,7,8,10,13,16-20; DNA T4,T5,T14,C21-C23; 5' and 3' idT) [SEQ 72], the IC50 in the data set with chymase [12] is 120 nM.
On to GGGTTAGAUAGAGTUAAAAACCC (mixed, 2'-F U; 2'-OMe 1-3,7,10,13,16-20; DNA T4,T5,A8,T14,C21-C23; 5' and 3' idT) [72(1)], for which, in the data set with chymase [13], the half-inhibitory concentration (IC50) turned out to be 103 nM.
For the molecule GGGUUAGAUAGAGTUAAAAACCC (mixed, 2'-F U and C; 2'-OMe 1-3,7,8,10,13,16-20; DNA T14; 5' and 3' idT) [SEQ 71], in the data set with chymase [14], the half-inhibitory concentration (IC50) came to 341 nM.
As to GGGUUAGAUAGAGUUAAAAACCC (ssRNA, 2'-F U and C; 2'-OMe 1-3,7,8,10,13,16-20; 5' and 3' idT) [56(46)], the IC50 came to 49 nM with chymase [1] (label: 5' biotin) and 742 nM with chymase [15].
In the case of GGGUUAGAUAGAGUUAAAAACCC (mixed, 2'-F U; 2'-OMe 1-3,7,8,10,13,16-20; DNA C21-C23; 5' and 3' idT) [56(48)], the values for the half-inhibitory concentration (IC50) in the data set with chymase [1] and with chymase [16] were 36 nM and 621 nM, respectively.
Consider AAAGGGUUAGAUAGAGUUAAAAACCC (ssRNA, 2'-F U and C; 2'-OMe 1-6,10,11,13,16,19-23; PS 9-10; 5' and 3' idT) [69(1)], for which the IC50 in the data set with chymase [17] came to 480 nM; in the data set with chymase [1], 44 nM.
As to GGGTTAGAUAGAGUUAAAAACCC (mixed, 2'-F U and C; 2'-OMe 1-3,7,8,10,13,16-20; DNA T4,T5; 5' and 3' idT) [SEQ 70], the IC50 with chymase [18] turned out to be 478 nM.
For GGGTTAGAUAGAGTUAAAAACCC (mixed, 2'-F U; 2'-OMe 1-3,7,10,13,16-20; DNA T4,T5,A8,T14,C21-C23; 5' and 3' idT) [72(8)], the IC50 in the data set with chymase [19] was determined as 97 nM.
As to GGGTTAGAUAGAGTUAAAAACCC (mixed, 2'-F U; 2'-OMe 1-3,7,8,10,13,16,18-20; DNA T4,T5,T14,A17,C21-C23; 5' and 3' idT) [72(5)], the IC50 worked out at 27 nM with chymase [1] and 377 nM with chymase [20].
